B1: fragment of APPL (aa 489-639) identified in the yeast two-hybrid screen (other)
chain: TKSETEDSILHQLFIVRFLGSMEVKSDDHPDVVYETMRQILAARAIHNIFRMTESHLLVTCDCLKLIDPQTQVTRLTFPLPCVVLYATHQENKRLFGFVLRTSSGRSESNLSSVCYIFESNNEGEKICDSVGLAKQIALHAELDRRASEKQ
notes: Prey from a human brain cDNA library; The fragment fully overlaps the PTB domain (aa 500-634); also called APPL-PTB; fragment of DIP13alpha
B2: V5-APPL (full length APPL protein) (other, not shown: small tags and cut ends)
chain: MPGIDKLPIEETLEDSPQTRSLLGVFEEDATAISNYMNQLYQAMHRIYDAQNELSAATHLTSKLLKEYEKQRFPLGGDDEVMSSTLQQFSKVIDELSSCHAVLSTQLADAMMFPITQFKERDLKEILTLKEVFQIASNDHDAAINRYSRLSKKRENDKVKYEVTEDVYTSRKKQHQTMMHYFCALNTLQYKKKIALLEPLLGYMQAQISFFKMGSENLNEQLEEFLANIGTSVQNVRREMDSDIETMQQTIEDLEVASDPLYVPDPDPTKFPVNRNLTRKAGYLNARNKTGLVSSTWDRQFYFTQGGNLMSQARGDVAGGLAMDIDNCSVMAVDCEDRRYCFQITSFDGKKSSILQAESKKDHEEWICTINNISKQIYLSENPEETAARVNQSALEAVTPSPSFQQRHESLRPAAGQSRPPTARTSSSGSLGSESTNLAALSLDSLVAPDTPIQFDIISPVCEDQPGQAKAFGQGGRRTNPFGESGGSTKSETEDSILHQLFIVRFLGSMEVKSDDHPDVVYETMRQILAARAIHNIFRMTESHLLVTCDCLKLIDPQTQVTRLTFPLPCVVLYATHQENKRLFGFVLRTSSGRSESNLSSVCYIFESNNEGEKICDSVGLAKQIALHAELDRRASEKQKEIERVKEKQQKELNKQKQIEKDLEEQSRLIAASSRPNQASSEGQFVVLSSSQSEESDLGEGGKKRESEA

Experiments:
[1] = target: T1, full length HDAC1 (yeast two-hybrid bait) (Homo sapiens (Human), UniProt Q13547 1-482); experiment: yeast two-hybrid screen
T1 construct: also called histone deacetylase 1

[2] = target: HDAC1-flag (Homo sapiens (Human), UniProt Q13547 1-482); experiment: cell-based or functional assay
Chain of HDAC1-flag (Q13547 whole entry): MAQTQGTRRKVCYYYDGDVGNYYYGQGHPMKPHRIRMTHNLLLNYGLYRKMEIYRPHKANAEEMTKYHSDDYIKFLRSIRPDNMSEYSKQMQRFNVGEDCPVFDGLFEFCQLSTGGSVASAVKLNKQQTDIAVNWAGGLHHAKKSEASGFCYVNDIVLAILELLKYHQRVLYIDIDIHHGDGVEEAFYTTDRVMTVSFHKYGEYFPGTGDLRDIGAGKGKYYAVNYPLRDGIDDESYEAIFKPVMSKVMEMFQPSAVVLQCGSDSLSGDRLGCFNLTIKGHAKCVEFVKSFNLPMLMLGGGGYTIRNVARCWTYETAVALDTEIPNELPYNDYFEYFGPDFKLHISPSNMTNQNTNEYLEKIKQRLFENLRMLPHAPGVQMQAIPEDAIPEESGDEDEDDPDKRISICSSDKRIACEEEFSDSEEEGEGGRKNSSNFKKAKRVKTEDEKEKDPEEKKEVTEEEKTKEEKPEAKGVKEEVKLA

T1 sequence (Q13547 whole entry): as above

binding result [1]	HDAC1 activity: release of [3H]acetic acid from an [3H]acetyl-labeled histone H4 peptide by immunoprecipitated HDAC1 [2]	Binder
binds		B1
	~4 fold	B2
